Publication PMC7494816

Columns and labels:
[1] = biological target: 2:1:1 Vps75–Rtt109–(H3-H4) complex formed from co-expressed Vps75–Rtt109 (Saccharomyces cerevisiae | Xenopus laevis) (UniProt P53853); assay: SEC-MALS; 20 μM co-expressed 2:1 Vps75–Rtt109 with 20 or 40 μM H3-H4 or H3DM-H4; Superdex 200 Increase 10/300 GL; 20 mM Tris–HCl pH 7.5, 300 mM NaCl, 0.5 mM TCEP
[2] = biological target: 2:1:1 Vps75–Rtt109–(H3-H4) complex, reconstituted from individually purified Vps75 and Rtt109 (Saccharomyces cerevisiae | Xenopus laevis) (UniProt P53853); assay: AUC; sedimentation velocity; 0.5 or 1 equivalent of H3-H4 or H3DM-H4 titrated against Vps75–Rtt109 reconstituted at 2:2 or 2:1 (relative to 7.5 μM Vps75), with 2:2 mixes of Vps75 and histones for reference; 20 mM Tris pH 7.5, 150 mM NaCl, 0.5 mM TCEP, 20°C
[3] = biological target: co-expressed and co-purified 2:1 Vps75–Rtt109 complex (Saccharomyces cerevisiae) (UniProt P53853); assay: SEC-MALS; 20 μM co-expressed 2:1 Vps75–Rtt109 with 20 or 40 μM H3-H4 or H3DM-H4; Superdex 200 Increase 10/300 GL; 20 mM Tris–HCl pH 7.5, 300 mM NaCl, 0.5 mM TCEP
[4] = biological target: Vps75–Rtt109 complex reconstituted at 2:1 from individually purified proteins (Saccharomyces cerevisiae) (UniProt P53853); assay: AUC; sedimentation velocity; 0.5 or 1 equivalent of H3-H4 or H3DM-H4 titrated against Vps75–Rtt109 reconstituted at 2:2 or 2:1 (relative to 7.5 μM Vps75), with 2:2 mixes of Vps75 and histones for reference; 20 mM Tris pH 7.5, 150 mM NaCl, 0.5 mM TCEP, 20°C
[5] = biological target: Vps75–Rtt109 complex reconstituted at 2:2 from individually purified proteins (Saccharomyces cerevisiae) (UniProt P53853); assay: as above; details: scale: H3-H4 per Vps75 dimer

Question: With “2:1:1 Vps75–Rtt109–(H3-H4) complex formed from co-expressed Vps75–Rtt109 (from UniProt P53853 1-264; Q07794 1-436; P84233 1-136; P62799 1-103)” as the substance, how does the stoichiometry N (copies of the 2:1:1 sub-complex (4:2:2)) [1] read?
Answer: Its stoichiometry N (copies of the 2:1:1 sub-complex (4:2:2)) is 2.

Question: Which stoichiometry N (copies of the 2:1:1 complex (4:2:2)) [2] does the source give for “2:1:1 Vps75–Rtt109–(H3-H4) complex, reconstituted from individually purified Vps75 and Rtt109 (from UniProt P53853 1-264; Q07794 1-436; P84233 1-136; P62799 1-103)” here?
Answer: The stoichiometry N (copies of the 2:1:1 complex (4:2:2)) was 2.

Question: With “Xenopus laevis H3DM-H4 (H3 dimerization mutant C110E, L126A, I130A with H4), refolded (from UniProt P62799 1-103) (complex)” as the substance, how does the stoichiometry N (H3DM-H4 per 2:1 Vps75–Rtt109 (2:1:1)) [3] read?
Answer: The stoichiometry N (H3DM-H4 per 2:1 Vps75–Rtt109 (2:1:1)) was 1.

Question: What about the stoichiometry N (H3DM-H4 per Vps75 dimer (printed 2:2:1)) [4] of the same substance?
Answer: The stoichiometry N (H3DM-H4 per Vps75 dimer (printed 2:2:1)) was 1.

Question: With “Xenopus laevis histones H3-H4 (wild type), refolded (from UniProt P84233 1-136; P62799 1-103) (complex)” as the substance, how does the stoichiometry N (H3-H4 per 2:1 Vps75–Rtt109 (2:1:1)) [3] read?
Answer: The stoichiometry N (H3-H4 per 2:1 Vps75–Rtt109 (2:1:1)) was 1.

Question: And the stoichiometry N [5]?
Answer: The stoichiometry N was 1.
